The data set is described as follows: yeast display, Sf9 membrane polyspecificity reagent, FACS + sequencing; frameworks hold sequencing errors. The gist of the method: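 Galactose-induced (36–48 hours) yeast carrying a synthetic nanobody display library were exposed to 10% biotinylated, detergent-solubilized Sf9 membrane reagent at 4 °C for 1 hour. FACS followed streptavidin microbead enrichment, using low and high (top ~1%) gates for expression (anti-HA) and reagent binding (streptavidin). Colony PCR, MiSeq 2 × 250 sequencing and CDR-length filtering followed. Labels for polyreactivity reflect the gate of origin.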
With “QVQLLESGVCLVQAGGSLRLSCAASGFTFGVYAMGWYRQAPGKERELVAAISTTVGSTYYADSVKGRFTISRDNAKKTVYLQMNSLKPEDTAVYYCAAEYTGYINYYIYEYWGQGTQVTVSS”, the “polyreactivity (PSR sort gate)” value was “low polyreactivity”.
As to “QVQLLESRGGLVQAGGSLRLSCPASGITFSRCAMGWYRQAPGKERELVAAITSGGRTNYADSVKGRFTISRDNATNTVYLQMISLKPEDTAVYYCAASYYYLSWRMDYWGQGTQVTVSS”, the “polyreactivity (PSR sort gate)” value is recorded as “high polyreactivity”.
As to “QVQLLESWGGLVQAGGSLRLSCAASGLIFYRNAMGWYRQAHGKERELVAAISVSGGSTYYADSVKGRFTISRDNAKNTVYLQMNRLKPEDTAVYYCAAKTWRSRGKEMDYWGQGTQVNVSS”, the “polyreactivity (PSR sort gate)” value was “high polyreactivity”.
With “QVQLLETGGGLVQAGASLRLSCAASGSTFEDNAMGWYRQAPGKERELVAAITSGGNTYYADSVKGRFTIARDNAKNTVYLPMNSLKPEDTAVYYCNAVPFYYVFDYWGQGTQVTVSS”, the “polyreactivity (PSR sort gate)” value is “low polyreactivity”.
For “QVQLLETGGGLVQAGGSLRLSCAASGSILRWYVRGWYRQAPGKERELVADIDSGGSTNYADSVKGRFTISRDNAKNTVFLQMNSLKPEDTAVYYCASDVPSRSRYGVYRRDGMDYWGQGTQVTVSS”, the “polyreactivity (PSR sort gate)” value is “low polyreactivity”.
The value for “QVQLLETGGGLVQAGGSLRLSCAPSGGIFGFNAMGWYRQAPGKERELVADISDGVRTNYADSVKGLFTISRDNAKTTVYLQMNRLKPEDTAVYYCATDGLFYVDGSWTLGYWGQGTQVTVSS” was “low polyreactivity”; that for “QVQLLETVGGLVQAGGSLRLSCASSGFTFGYYTMGWYRQAPGKERELVAAISSSGGRTYYADSVKGRFTISRDIAKNTVYLQMISLKPEDTALYYCNVYYISTDLYYWGQGTQVTVSS” was “high polyreactivity”.
Take “QVQLLQTGGGLVQAGGSLRLSCAASGRIFVVNAMGWNRLAPGKEREMVADISSGVSTNYADSVKGRFTISRDNAKNTVYLQMNILKPEDTALYYCNSRFRFRYKFPSRNSWGQGTLVTVSS”: the “polyreactivity (PSR sort gate)” value is on record as “high polyreactivity”.
On to “QVQLLVTGGGLVQAGGTLRISCAASGSIFYSYAMGWYRQSPGKERELVAAITGGGSTNYADSVKGRFTISLDNAKNTVYLQMNSLKPEDTAVYYCATDLYPIGAVIRYDYWGQGTQVTVSS”, for which the “polyreactivity (PSR sort gate)” value is given as “low polyreactivity”.
In the case of “QVQLQDSGGGLEQAGGSLRMSCAANGNIFDADIVGRYRQAQGKKRELVASITDGGITNYADSVKGRFTISRDNAKYTVYLQMNSQNPEDTAVYYCAAIAYPDIPTYFDYDSDFFYWGQGTQVTVSS”, the “polyreactivity (PSR sort gate)” value is reported as “high polyreactivity”.
For “QVQLQDSGGGLVQAGGSLRLSCAASGTIFWYSDLGWYRQAPGKERKFVAGIGFGSNSNFADSVRGRFTISRDNAKNTVYLQMNSLKPEDTAVYYCAAVWFDYSTHRYWGQGTQVTVSS”, the “polyreactivity (PSR sort gate)” value is reported as “high polyreactivity”.
With “QVQLQDSGGRLVQAGGSLRLSCAASGYIFGSCSMGWFRQSPGKVRELVATINNGSSTYYADSVKGRITISRDNAKNSVYLQMNSLKPEDTAVYYCAVSLYRLTFFYYWGQGNQVTVSS”, the “polyreactivity (PSR sort gate)” value is recorded as “high polyreactivity”.
For the sequence “QVQLQECGGGLVQAGGRLRLSCAASGNIFDADIMGWYRQAPGKERELVASVTDGGSTNYADSVKGRFTISRDNAKNTVYLQMISLTPEDTAVYYCAAIVYPDILTYFDYDYDYFYWGQGTQVTVGS”, the “polyreactivity (PSR sort gate)” value is “low polyreactivity”.
“QVQLQECGGGLVQEGGSLRLSCAASGTYSNSVKWLYCQAPGKEREFVATIGVGGSTNYADSVKGRFTISRDIAKNSVYLQMNSLKPDDTAVYHCSAYGAASNFHYYRGQGTQVTVSS”: the “polyreactivity (PSR sort gate)” value is “low polyreactivity”.
For the sequence “QVQLQEGGGLVQAGGSLRLSCAASGYISSPPAMGWYRQAPGKERAFVATIADGTSTYYADSVKGRFTISRDNAKNTVYLQMNSLKTEDTEVYYCAAAYNTEFYLSYWGQGTQVTVIS”, the “polyreactivity (PSR sort gate)” value is listed as “high polyreactivity”.
Regarding “QVQLQEGGGLVQAGGSLRLSCAASGYISSRPAMGWYRQAPRKERAFVATIADGTSTYYADSVKGRFTISRDNAKNTVYLQMNSLKPEDTAVYYCAAAYNTEFYLSYWGQGTQVTVSS”, the “polyreactivity (PSR sort gate)” value is given as “high polyreactivity”.
Turning to “QVQLQEGRGLVQAGGSLRLSSAASGYISSRPAMGWYRQAPCKERSFVATIADGTSTYYADSVKGRFTISRDNAINTVYLQMNSLKPEDTAVYYCAAAYNTEFYLSYWGQGTQVTVSC”, the “polyreactivity (PSR sort gate)” value is “high polyreactivity”.
For the sequence “QVQLQERGDGLLQAVGSLRLSFAESGYISGYYYMGWYRQAPGKDRELVAGIDAFGSSTNYADCVKGRFTISRDNAKNTVYLEMNSLKPEDTAVYYCAASPDGERLFSYWGQGTQVTVSS”, the “polyreactivity (PSR sort gate)” value was “low polyreactivity”.
With “QVQLQERGGGLVQAGGSLCLSCAASGTIFFDGDMGWYRQAPGKEREFVAAINPGGSAYYADSVKGRLPLAAITHTVYLQMNSLKPEDTAVYYCAAKLFDVYGYYYWGQGTHVTVSS” the entry was “low polyreactivity”; with “QVQLQERGGGLVQAGGSLCLTCEASGTIFYDGDMGLYRQAPGKEREFVAAINPGGSAYYADSVKGRLPLAAITHTVYLQMFSLKPEDTAVYYCAAEQITGWSRVWVSWYDYWGQGTQVTVSS”, “low polyreactivity”.
Consider “QVQLQERGGGLVQAGGSLRLSCAASGIIYADGFMGLYRQAPGKELEFVANITGGGTSNYADSVKGGFTISRDNAKNTVYLQMNSLKPEDTAVYFCAVYFAWTIGFTYWGQGTQVTVSS”, for which the “polyreactivity (PSR sort gate)” value was “high polyreactivity”.
With “QVQLQERGGGLVQVGGSQRLSCAASGNIFYNYAMGWYRHAQGKEREFDATINHGTSINYADSVKGRFTISRDNAKNSVYLQMNSLKPEDTAVYYCAADLSWTDNLFYWGQGTQVTVSS” the entry was “low polyreactivity”.
On to “QVQLQERGGGLVQVRGSLRLSCAASGTIIIYGFMGWNRQAPGKERELVASINLGGITNYADSVTGRFTISRDNAKNTVYRQMISLKPEDNAVYYCAAYVVTGQNYGYWCQGTQVTVSS”, for which the “polyreactivity (PSR sort gate)” value is recorded as “low polyreactivity”.
Turning to “QVQLQERGGGQVQAGGSLRLSCAASGTIFLYAFMGWYRQAPGKERELVAAIDVGTTTNYADSVKGRFTISRDNAKNTVYLQMNSLKPEDTAVYYCAANLGYLDDLGYWGQGTQVTVSS”, the “polyreactivity (PSR sort gate)” value was “low polyreactivity”.
The value for “QVQLQESAGGLVKAGGSLRLSCAASGNISNHNDMRWYRQAPGKEREFVAGITAGGNTNYADSVKGRFTISRDNAKNTVYLQMNSLKPEDTAVYYCAAYPDYAKSYGYWGQGTQATVSS” was “low polyreactivity”.
“QVQLQESAGGLVQAGGSLRLRCSASGYISCDASMGWYRQAPGKERELAASITQGSSTNYADSVKGRFTIRDNAKNTVYLQMNSLKPEDTAVCYCAVTYPYWGDYTYWGQGTQVTVSS”: the “polyreactivity (PSR sort gate)” value is listed as “low polyreactivity”.
For the sequence “QVQLQESAGGLVQAGGSLRLSCAASGTISTDSYMGWYRQAPGKERKFVATIGYGGITYYADSVKGRSTISRDSAKNTVYLQMNSLKPEDTAVYYCAVNSYYPDHYWYWGRGTQVTVSS”, the “polyreactivity (PSR sort gate)” value was “high polyreactivity”.
Consider “QVQLQESAGGLVQAGGSLRMSCAASGTIFSEANMGWYRQAPGKERELVATIGQGSTTNYADSVKGRFTISRDNAKNTVYLQMNSLKPEETAVYYCAVVTVDPVGFVYWGQGTQVTVSS”, for which the “polyreactivity (PSR sort gate)” value was “low polyreactivity”.
As for “QVQLQESCGGLVQAGGSLRLSCAASGSIFDGFNMGWYRQAPGKEREFVAAISYGASTYYADSVKGRFTVSRDNAKNSVYLQMNSLKPEDTAVYYCAVYDELYHVLVYWGRGTQVTVSS”, the “polyreactivity (PSR sort gate)” value is given as “low polyreactivity”.
Consider “QVQLQESGAGLVQAGGRLRLSCASSGTITVLYKMGWFRQAPGKEREFVASINYGTSTYYADSVKGRFTVSRDSATNHEYLQMISLKPEDTAVYYCAAAYRWQDVYRYWGQGSQVTVSS”, for which the “polyreactivity (PSR sort gate)” value is reported as “low polyreactivity”.
As to “QVQLQESGAGLVQAGGSLRLCCAASGSIFYVYGMGWYRQAPGKERELVAGINAGTNTNYADSVRGRFTISRDNAKNTVHLQMNSLKPEDTAVYYCAADGNGYQAHEYWGQGTQVTVSS”, the “polyreactivity (PSR sort gate)” value is “high polyreactivity”.
For the sequence “QVQLQESGDGLVQAVGSLRLSCAASGYISGYNYMGWYRQAPGKERELVAGIDAFGSSTNYADCVKGRFTISRDNAKNTVYLQMNSPKPEDTAVYYCAAEYDDWDYLWYWGQGTQVTVSS”, the “polyreactivity (PSR sort gate)” value is “low polyreactivity”.
As for “QVQLQESGDGLVQAVGSLRLSCAASGYISGYYYMGWYRQAPGKERELVAGIEAFGSSTNYADCVKGRFTISRDNAKNTVYLQMNSPKPEDTAVYYCAAEYDDWDYHWYWGQGTQVTVSS”, the “polyreactivity (PSR sort gate)” value is reported as “low polyreactivity”.
With “QVQLQESGGCLVQAGGSLRLSCAASGPISRRSTMGWYSQAPGKERELVTAITRGTNTNYADSVKGRFTISRDNAKNTEYLQMNSLKTEDTAVYYCAAYGVLKPSRGDAVFHRYWGQGTQVTVSS”, the “polyreactivity (PSR sort gate)” value is recorded as “low polyreactivity”.
On to “QVQLQESGGCLVQAGGSLRLSCAASGTNSDSGLMGWYRQAPGKERELVAGISSGGITTYADSVKGRFTISRDNAKNTVYLQMNSLKPEDTAVYWGQGTQVTVSC”, for which the “polyreactivity (PSR sort gate)” value was “low polyreactivity”.
As to “QVQLQESGGGLEQAGGSLRLSCAATGTIFTDRFMGWYRQAPGKERELVAGISPGTSSNSADSVKGRFTISRDNAKNTVYLQMNSLKPEDTAVYYCAADWSTGNTLPYWGQGTQVTVSS”, the “polyreactivity (PSR sort gate)” value is listed as “high polyreactivity”.
The value for “QVQLQESGGGLEQEGGSLRLSCAASGNISPPADMGWYRQAAGKERELVASIGTGGTTNYADSVKGRFNISRDNAKNTVYLQMNSLKPDDTSVYYCAAVRYEYNPYDYLGQGTQVTVSS” was “low polyreactivity”; that for “QVQLQESGGGLGQAGRSLRHSFAASGNIFDAGIMGWYRQAPGEERELVACITDGGSTNYADSVKRRFTISRDNAKNTVYLQMNSQKPEDTAVYYCAASWDTIGLFAYWGQGTQVTVSS” was “high polyreactivity”; that for “QVQLQESGGGLMQAGGNLRLSCAASGYISTHYDMDWYRQAPGKERELVARIDDGAITNYADSVKGRFTISRDNAKNTVYLQMNSLKPEDTAVYYCAVSSGDDYYHDYWGQGTQVTVSS” was “low polyreactivity”.
For the sequence “QVQLQESGGGLVHAGGSLRLSCAASGTISFINMMGWYRQAPGRERELVASINFGANTNYADSVKGRFTISRDNAKNTVYLQMNSLKPEDTAVYYCAVYDFDAYTLYYWGQGTLVTVSS”, the “polyreactivity (PSR sort gate)” value is reported as “high polyreactivity”.
As for “QVQLQESGGGLVHAGGSLRLSCAASVTISFINMMGWYRQAPGRERELDASINFGANTNYADSVKGRFTISRDNAKNSVYLQMNSLKPEDTAVYYCAVYDFDAYTLYYWGQGTLVTVSS”, the “polyreactivity (PSR sort gate)” value is “high polyreactivity”.
